Source: US20240108702A1, “Use Of Naturally Occurring Cyclic Peptides For Treatment Of SARS-COV-2 Infection” (The University of Southern California, priority 2021, published 2024)
Several values for one entry are separate records, joined by “and”; a condition that tells them apart may be missing. Identical values can stand only once. Entries after “also recorded” stand apart in the source; their conditions may differ. Where no end group is shown, it is not given here. [ ]: non-standard residue; d: D form. 14C‑Gly = 14C labelled glycine

Columns and labels:
[1] = tested on: SARS-CoV-2; test: Antiviral assay, SARS-CoV-2 replication in Calu3 2B4 cells (RT-qPCR); assay type: cell-based; conditions: 24 h
[2] = target: T1, TMPRSS2 (Homo sapiens, UniProt O15393); test: Cellular TMPRSS2 inhibition assay in Calu3 cells; assay type: cell-based; set-up: endogenous in cells; host or cells: Calu3 (Calu-3) cells; conditions: Calu3 cells
T1 sequence (O15393 whole entry): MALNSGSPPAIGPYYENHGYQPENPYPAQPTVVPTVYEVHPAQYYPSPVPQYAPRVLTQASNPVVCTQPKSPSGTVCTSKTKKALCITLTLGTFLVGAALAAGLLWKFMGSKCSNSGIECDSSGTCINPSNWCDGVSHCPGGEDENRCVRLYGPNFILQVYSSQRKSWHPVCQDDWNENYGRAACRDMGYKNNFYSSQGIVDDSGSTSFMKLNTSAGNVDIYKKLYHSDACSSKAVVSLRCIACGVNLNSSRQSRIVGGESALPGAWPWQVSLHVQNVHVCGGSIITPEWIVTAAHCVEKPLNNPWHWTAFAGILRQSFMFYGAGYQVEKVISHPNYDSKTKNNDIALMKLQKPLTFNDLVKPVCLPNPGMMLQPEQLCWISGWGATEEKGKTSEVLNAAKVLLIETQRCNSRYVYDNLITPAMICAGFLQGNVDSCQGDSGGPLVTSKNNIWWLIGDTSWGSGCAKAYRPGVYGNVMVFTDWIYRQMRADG
Experimental: (§1) TMPRSS2 inhibition assays. Peptides (0-50 μg/ml) were tested for their inhibitory activities against TMPRSS2 in cellular assays using Vero E6 cells, Caco-2 cells, or Calu-3 cells using standard conditions. TMPRSS2 activity was assayed in real time for 120 min by monitoring the cleavage of the TMPRSS2 substrate, Boc-Leu-Gly-Arg-AMC. Following the 2 h enzyme assay, cells were evaluated for viability using the CellTiter-Glo cellular toxicity assay.

[3] = target: T1, TMPRSS2; test: Cellular TMPRSS2 inhibition assay in Caco-2 cells; assay type: cell-based; set-up: using Caco-2 and Calu3 cells, both of which express surface TMPRSS2; endogenous in cells; host or cells: Caco-2 cells
Experimental: Caco-2 cells (1×10^5 per well) were incubated in 96 well plates with 0 to 50 μg/ml of the indicated peptide in the presence of a TMPRSS2 substrate (Boc-Leu-Gly-Arg-AMC) in 50 mM Tris-HCl, pH 7.4. Substrate conversion was monitored in a fluorescence plate reader for 2 hours and inhibition of enzyme activity was expressed relative to a solvent control.
as §1

[4] = Biodistribution of 14C-radiolabeled Peptide 1 in female rats; assay type: in vivo, SD rats
Experimental: Biodistribution [^14C]-radiolabeled Peptide 1 (SEQ ID NO. 1) in female rats: Five SD rats (195 and 200 g b.w.) with jugular vein catheters (JVC) were each injected with 200 μL of 5 mg/mL Peptide 1 (SEQ ID NO. 1) in saline containing ˜4 million CPM of [^14C]-Peptide 1. The ^14C-Peptide 1 (SEQ ID NO. 1) was created by substituting the natural glycine residue on position 1 of the cyclic peptide with a ^14C labeled glycine. The JVC line was cleaned with 70% isopropyl alcohol, and the line plug was removed. A new 25 G blunt needle with a 1 mL syringe containing injectable solutions was used for each injection. The JVC line was first cleared with 100 μL saline, followed by the Peptide 1 (SEQ ID NO. 1) solution, then cleared with an additional 100 μL of saline. Tissues and organs were harvested into separated vials and weighed. Small organs such as lymph nodes, kidneys, and heart/lungs were processed whole. Large organs (e.g., liver, muscles, subcutaneous fat pads) were sampled from representative areas or those of interest (e.g., subcutis at the injection site). Organs were then dissolved in 2 mL Solvable™ (Perkin Elmer 6NE9100) for up to 1 g of tissue. For a large section of skin and other organs, 4 or 6 mL were added. Vials were incubated in a 60° C. water bath for 18-22 hours, then removed and allowed to cool to room temperature. […]

[5] = target: TMPRSS2 (UniProt O15393 1-492, limits assumed); test: cell-based or functional assay
TMPRSS2 (UniProt O15393 1-492, limits assumed), sequence (O15393 whole entry): as above

Peptide 2: naturally occurring cyclic peptide (theta defensin), SEQ ID NO. 2, FIG. 1A (GVCRCLCRRGVCRCLCRR; cyclic; listed as Macaca mulatta)
SARS-CoV-2 viral replication (N gene expression relative to ACTB) [1]: highly effective in blocking viral replication

Peptide 3: naturally occurring cyclic peptide (theta defensin), SEQ ID NO. 3, FIG. 1A (GFCRCICTRGFCRCICTR; cyclic; listed as Macaca mulatta)
inhibition of TMPRSS2 [2]: similarly inhibited TMPRSS2
inhibition of TMPRSS2 ([3]; Caco-2 cells, 0 to 50 μg/ml, FIG. 10): higher than Peptide 1

Peptide 5: naturally occurring cyclic peptide (theta defensin), SEQ ID NO. 5, FIG. 1B (GICRCLCRRGVCRCICVL; not fully specified (bridges); also: cyclic; listed as Macaca mulatta)
SARS-CoV-2 viral replication (N gene expression relative to ACTB) [1]: no apparent antiviral effect; also recorded: inactive
TMPRSS2 inhibitory activity ([3]; highest concentration tested (50 μg/mL), cell line not stated): no TMPRSS2 inhibitory activity

^14C-Peptide 1: created by substituting the natural glycine residue on position 1 of the cyclic peptide with a 14C labeled glycine ([14C‑Gly]FCRCLCRRGVCRCICTR; not fully specified (bridges); also: cyclic; listed as Macaca mulatta)
tissue distribution (density of 14C) ([4]; 1 h after i.v. administration): highest density measured in the liver, followed by the kidney
14C counts recovered in urine ([4]; single i.v. dose equivalent to 5 mg/kg, 24 h): 7% and 8.5%

B1: Peptide 1 (SEQ ID NO. 1) (peptide)
peptide: cyclo(GFCRCLCRRGVCRCICTR)
modifications: disulfide (positions not given here); also: three disulfide bonds, pairing not given here
IC50 of enzyme inhibition (cleavage of Boc-Leu-Gly-Arg-AMC by cells) [5]: 6.5 to 8 mg/L
